pKd: −log10 of the molar value.
Columns and labels:
[1] = molecular target: Arabidopsis 14-3-3 isoform kappa (At14-3-3-κ^1−248) (Arabidopsis thaliana) (UniProt P48348); experiment: ITC; Nano ITC, 25°C, 25 mM Hepes pH 7.0, 50 mM KCl; 600 μM peptide or phosphopeptide injected into 50 μM 14-3-3 protein in the cell, 25 injections
14-3-3κ = 14-3-3κ (UniProt P48348); experiment: isothermal titration calorimetry
[2] = molecular target: biotinylated 14-3-3 ω dimer (Arabidopsis thaliana) (UniProt Q01525); experiment: grating-coupled interferometry (GCI); Creoptix WAVE; biotinylated 14-3-3 ω dimer captured on a streptavidin-coated 4PCH chip (~500 pg/mm^2); peptide as analyte, 2-fold dilution series from 10 µM; 25°C; 20 mM Hepes, 150 mM NaCl; 1-to-1 (2:2) binding model
Chain of biotinylated 14-3-3 ω dimer (Arabidopsis thaliana) (Q01525 whole entry): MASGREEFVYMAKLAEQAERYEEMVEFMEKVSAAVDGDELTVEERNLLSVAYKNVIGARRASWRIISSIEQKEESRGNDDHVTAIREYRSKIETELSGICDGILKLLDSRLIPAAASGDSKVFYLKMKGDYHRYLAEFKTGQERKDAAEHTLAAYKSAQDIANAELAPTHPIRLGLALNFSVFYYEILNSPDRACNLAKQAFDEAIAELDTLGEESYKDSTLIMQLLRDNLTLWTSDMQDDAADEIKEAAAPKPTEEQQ

Chain of Arabidopsis 14-3-3 isoform kappa (At14-3-3-κ^1−248) (Arabidopsis thaliana) (P48348 whole entry, canonical isoform): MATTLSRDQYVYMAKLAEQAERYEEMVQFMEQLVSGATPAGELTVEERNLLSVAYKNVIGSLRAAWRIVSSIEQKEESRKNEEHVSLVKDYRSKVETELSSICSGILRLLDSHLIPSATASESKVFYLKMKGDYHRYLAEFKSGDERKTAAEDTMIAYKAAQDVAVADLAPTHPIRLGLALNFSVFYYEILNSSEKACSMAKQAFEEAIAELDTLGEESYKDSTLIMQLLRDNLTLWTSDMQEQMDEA
Chain of 14-3-3κ (P48348 whole entry, looked up): as the sequence (P48348 whole entry, canonical isoform) above

Row | stoichiometry N [1] | pKd [1] | Substance | also measured
1 | 1 | 4.80 | pBKI1^265−272 peptide | –
2 | 1 | 6.30 | pBZR1^169−175 peptide | pKd [2]: 6.30; complex lifetime [2]: 1 s

More lines, now with the values behind:

Row | Substance | stoichiometry N [1] | pKd [1] | also measured
3 | pBRI1^869−874 peptide | 1 | – | –
4 | BRI1 869-874 (from UniProt O22476) pT872 peptide | – | – | binding against the reference (14-3-3κ; reference: unphosphorylated BRI1 869-874 peptide, sites T872): gained
5 | BKI1 265-272 (from UniProt Q9FMZ0) pS270 peptide | – | – | KD (14-3-3κ; reference: unphosphorylated BKI1 265-272 peptide, sites S270): gained; reference No binding was detected
